Measured values published in patent publication US20180127483A1 (CHILDREN S MEDICAL CENTER, published 2018).

Target: T1, recombinant human Flt-1/Fc chimera (R&D System 321-FL) (human, UniProt P17948 27-758)
T1 construct: extracellular domain; Bought from R&D Systems; also called VEGF-R1 extracellular domain Ig fusion; full-length VEGF-Receptor 1 extracellular domain; Fc part of the bought chimera not given
Assay: solution equilibrium: 10 pM human VEGF165 incubated overnight with 0.05-1000 pM binder, unbound VEGF165 measured by ELISA, curve fit
Description: FIG. 4. Binding affinity analysis of VEGF-binding proteins. In brief, a fixed concentration of human VEGF₁₆₅ (10 pM) was incubated overnight at room temperature with varying concentrations (0.05 pM to 1000 pM) of VEGF binding proteins. 20 hours later, concentration of unbound VEGF₁₆₅ was measured by ELISA. Binding curves were fitted using Prizm software.

T1 sequence (P17948 27-758, change not shown): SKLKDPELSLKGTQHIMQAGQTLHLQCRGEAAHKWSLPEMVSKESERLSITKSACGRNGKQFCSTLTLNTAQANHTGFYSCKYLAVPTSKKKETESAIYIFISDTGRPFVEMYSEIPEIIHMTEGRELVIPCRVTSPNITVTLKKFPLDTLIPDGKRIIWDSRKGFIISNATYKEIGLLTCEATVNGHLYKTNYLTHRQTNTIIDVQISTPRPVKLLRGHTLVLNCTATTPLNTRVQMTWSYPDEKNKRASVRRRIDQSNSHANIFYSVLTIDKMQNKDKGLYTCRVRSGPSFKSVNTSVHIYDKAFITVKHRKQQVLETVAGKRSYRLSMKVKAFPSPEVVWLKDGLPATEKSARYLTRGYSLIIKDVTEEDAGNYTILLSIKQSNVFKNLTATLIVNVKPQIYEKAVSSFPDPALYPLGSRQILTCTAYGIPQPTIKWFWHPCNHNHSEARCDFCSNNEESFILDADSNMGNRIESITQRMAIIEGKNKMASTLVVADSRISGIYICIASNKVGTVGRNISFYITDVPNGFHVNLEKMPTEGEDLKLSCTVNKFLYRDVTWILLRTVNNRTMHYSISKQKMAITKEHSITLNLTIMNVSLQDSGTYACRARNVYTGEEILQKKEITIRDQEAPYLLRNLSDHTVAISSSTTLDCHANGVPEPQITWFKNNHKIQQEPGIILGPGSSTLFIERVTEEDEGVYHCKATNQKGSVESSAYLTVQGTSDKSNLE

Kd: 0.0259 nM
B1: human VEGF165 (ligand, UniProt P15692-4 27-191, looked up)
chain: APMAEGGGQNHHEVVKFMDVYQRSYCHPIETLVDIFQEYPDEIEYIFKPSCVPLMRCGGCCNDEGLECVPTEESNITMQIMRIKPHQGQHIGEMSFLQHNKCECRPKKDRARQENPCGPCSERRKHLFVQDPQTCKCSCKNTDSRCKARQLELNERTCRCDKPRR
